Assay results as given in US20200283519A1 (IMCHECK THERAPEUTICS, published 2020).

B1: mAb3 (mouse anti-human BTN2 mAb 7.28) (antibody, V domains shown)
VH: QVHLQQSGAELMKPGASVKISCKATGYTFSSYWIEWVKQRPGHGREWIGEILPGSGSTKYNEKFRGKATFAADTSSNTAYVQLSSLTSEDSAVYYCARLKGYYGGGAMDYWGQGTSVTVSS
VL: DVQITQSPSYLAASPGETITINCRASKSISKYLAWYQEKPGKTNELLIYSGSTLQSGIPSRFSGSGSGTDFTLTISSLEPEDFAMYYCQQHNEYPWTFGGGTKLEIK
notes: Mouse IgG1 purified from hybridoma supernatant; also called CNCM I-5233
B2: mAb7 (mAb 8.33, comparative control antibody) (antibody, V domains shown)
VH: DVQLQESGPGLVKPSQSLSLTCSVTGYSITSGYYWNWIRQFPGNKLEWMGYISYDGNNNYNPSLKNRISITRDTSKNQFFLKLNSVTTEDTATYYCASPLYDGYYWYFDVWGAGTTVTVSS
VL: ETTVTQSPASLSLAIGEKVTIRCITSTDIDDDMNWYQQKPGEPPKLLISEANTLRPGVPSRFSSSGRGTDFVFTIENMLSEDVADYYCLQSDNLPYTFGGGTKLEIK
notes: Mouse IgG1 purified from hybridoma supernatant; also called CNCM I-5237
B3: mAb2 (mouse anti-human BTN2 mAb 5.28) (antibody, V domains shown)
VH: QIQLVQSGPELKKPGETVKISCKASGYTFTDYSMNWVKQAPGKGLKWVGRINTETGEPTYADDFKGRFAFSLETSASTAYLQIKNLKNEDTATYFCVRDYAKRWGQGTSVTVSS
VL: DIVMTQSHKFMSTSVGDRVSITCKASQDVITAVAWYQQKPGQSPKLLIYSTSYRYTGVPDRFTGSGSGTDFTFTISSVQAEDLAVYYCLQHYTTPWTFGGGTKLEIK
notes: Mouse IgG1 purified from hybridoma supernatant; also called CNCM I-5232
B4: mAb1 (mouse anti-human BTN2 mAb 4.15) (antibody, V domains shown)
VH: QVQLQQSGAELVKPGASVKLSCKASGYIFTSYDINWVRQRPEQGLEWIGWIFPGDDSIIQNEKFKGKATLTTDKSSSTVYMQLSRLTSEDSAVYFCARLGPLRGFTYWGQGTLVTVSA
VL: DIVLTQSPASLAVSLGQRATISCRASESVDRYGSSFMHWYQQKPGQPPKLLIYRASNLESGIPARFSGSGSRTDFTLTINPVEADDVATYYCQQSNEDPWTFGGGTKLEIK
notes: Mouse IgG1 purified from hybridoma supernatant; also called CNCM I-5231
B5: mAb4 (mouse anti-human BTN2 mAb 7.48) (antibody, V domains shown)
VH: EVQLVESGGDLVKPGGSLKLSCAASGFTFSDFYMYWVRRTPEKRLEWVATISDGGSHTYYPDSVKGRFTISRDNAKNNLYLQMRSLKSEDTAMYYCGRDTTIITPYWGQGTLVTVSA
VL: QSVVTQESALTTSPGETVTLTCRSSTGAVTTSNYANWVQEKPDHLFTGLIGGTNNRAPGVPARFSGSLIGDKAALTITGAQTEDEAIYFCGLWYSNHWVFGGGTKLTVL
notes: Mouse IgG1 purified from hybridoma supernatant; also called CNCM I-5234
B6: mAb5 (mouse anti-human BTN2 mAb 8.15) (antibody, V domains shown)
VH: EVKLLESGGGLVQPGGSLKLSCAASGFDFSGYWMTWVRQAPGKGLEWIGEINPDSSTINYTPSLRDKFIISRDNAKNTLYLQMSKVRSEDTALYFCARGSYYPSYWGQGTLVTVSA
VL: DIVLTQSPASLAVSLGQRATISCRASKSVSSSGYSYMNWYQQKPGQPPKLLIYLASNLESGVPARFSGSGSGTDFTLNIHPVEDEDAATYYCQHSRELPHTFGGGTKLEIK
notes: Mouse IgG1 purified from hybridoma supernatant; also called CNCM I-5235
B7: mAb6 (mouse anti-human BTN2 mAb 8.16) (antibody, V domains shown)
VH: EVKLLESGGGLVQPGGSLKLSCAASGFDFSGYWMTWVRQAPGKGLEWIGEINPDSSTINYTPSLRDKFIISRDNAKNTLYLQMSKVRSEDTALYFCARGSYYPSYWGQGTLVTVSA
VL: DIVLTQSPASLAVSLGQRATISCRASKSVSSSGYSYMNWYQQKPGQPPKLLIYLASNLESGVPARFSGSGSGTDFTLNIHPVEDEDAATYYCQHSRELPHTFGGGTKLEIK
notes: Mouse IgG1 purified from hybridoma supernatant; also called CNCM I-5236

Assays:
[1] = target: T1, human BTN2A2 expressed on HEK293F cells transfected with BTN2A2-Flag plasmid (human, UniProt Q8WVV5 33-523); assay: flow cytometry titration on HEK293F cells transfected with BTN2A2-Flag
T1 construct: HEK293F cells here are not knocked out for endogenous BTN2/BTN3; also called HEK-BTN2 cells; not shown: Flag tag
T1 sequence: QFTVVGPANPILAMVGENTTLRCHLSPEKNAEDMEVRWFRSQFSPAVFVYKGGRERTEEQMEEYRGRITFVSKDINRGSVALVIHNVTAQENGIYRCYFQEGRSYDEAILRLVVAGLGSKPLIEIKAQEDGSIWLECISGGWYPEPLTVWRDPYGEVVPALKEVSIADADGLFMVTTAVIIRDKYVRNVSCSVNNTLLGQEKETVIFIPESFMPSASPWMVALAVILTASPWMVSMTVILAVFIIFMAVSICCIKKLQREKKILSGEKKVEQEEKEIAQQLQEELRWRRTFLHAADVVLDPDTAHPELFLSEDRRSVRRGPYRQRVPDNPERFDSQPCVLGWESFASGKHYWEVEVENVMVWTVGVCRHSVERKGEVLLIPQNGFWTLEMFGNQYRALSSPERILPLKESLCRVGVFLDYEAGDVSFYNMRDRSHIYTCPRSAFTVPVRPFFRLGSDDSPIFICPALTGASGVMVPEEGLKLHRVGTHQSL

[2] = target: T2, human BTN2A2 CFP(Nter)-fusion protein expressed on 293F BTN3/BTN2 KO cells (human, UniProt Q8WVV5 33-523); assay: flow cytometry (PE MFI in CFP-positive cells) on 293F BTN3/BTN2 KO cells transfected with BTN2A2-CFP
T2 construct: also called pcDNA3-Zeo-BTN2A2-CFP; not shown: CFP fused at the N-terminus (CFP(Nter)-fusion)
T2 sequence: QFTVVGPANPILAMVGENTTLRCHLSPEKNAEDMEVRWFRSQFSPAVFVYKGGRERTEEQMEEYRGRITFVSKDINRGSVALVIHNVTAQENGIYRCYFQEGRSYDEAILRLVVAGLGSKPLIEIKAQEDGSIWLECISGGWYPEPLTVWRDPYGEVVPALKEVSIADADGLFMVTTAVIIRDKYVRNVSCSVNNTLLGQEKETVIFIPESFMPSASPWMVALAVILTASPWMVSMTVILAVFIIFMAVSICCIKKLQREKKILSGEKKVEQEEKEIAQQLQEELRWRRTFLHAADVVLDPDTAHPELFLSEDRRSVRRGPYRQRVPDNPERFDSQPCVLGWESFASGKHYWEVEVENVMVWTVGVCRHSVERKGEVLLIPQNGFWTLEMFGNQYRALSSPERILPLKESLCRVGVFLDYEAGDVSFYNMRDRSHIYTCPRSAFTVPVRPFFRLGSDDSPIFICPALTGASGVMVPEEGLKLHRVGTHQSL
Procedure: (§1) HEK-293F cells bearing CRISPR-Cas9-mediated deletions of all isoforms of BTN3 and BTN2 (293F BTN3/BTN2 KO) were generated (data not shown), cultured in DMEM (Life Technologies) 10% fetal bovine serum (FBS, Gibco) 1 mM sodium pyruvate (Thermofisher scientific), and transfected independently with pcDNA3-Zeo-BTN2A1-CFP or pcDNA3-Zeo-BTN2A2-CFP, which encode BTN2A1 and BTN2A2 CFP(Nter)-fusion proteins, using Lipofectamine 2000 reagent (Thermofisher scientific) according to manufacturer's instructions.
(§2) Twenty-four hours after transfection, cells (5×10⁴/sample) were collected and stained in duplicate with the indicated concentrations (2-fold dilutions starting from 20 μg/mL to 64 pg/mL) of all 7 purified anti-human BTN2 mAbs in 50 μL of staining buffer (DPBS1X (Thermofisher scientific) 1% FBS, 1 mM EDTA (Thermofisher scientific)) during 30 minutes at 4° C. Equal concentrations of mouse IgG1 antibody (Miltenyi) were used as isotype control for staining. Then, cells were washed twice with 200 μL of staining buffer, and incubated with a 1:200 dilution of goat anti-mouse Ig-PE conjugated (Jackson Immunoresearch) in staining buffer for 30 min at 4° C. in the dark. Finally, cells were washed twice in staining buffer prior to fixation using BD Cytofix reagent (BD Bioscience) according to manufacturer's instructions. Mean fluorescence intensity (MFI) on PE channel within the CFP-positive population was assessed for each sample in a Cytoflex LX (Beckman Coulter), and analyzed with a FlowJo V10.4.2 software (FlowJo, LLC 2006-2018).

[3] = target: T1, human BTN2A2 expressed on HEK293F cells …; assay: flow cytometry on HEK-BTN2 cells (summary table, repeats the 5th table)
[4] = target: T3, human BTN2A1 CFP(Nter)-fusion protein expressed on 293F BTN3/BTN2 KO cells (human, UniProt Q7KYR7 29-527); assay: flow cytometry on BTN2A1-transfected 293F BTN3/BTN2 KO cells (summary table, repeats the 7th table)
T3 construct: also called pcDNA3-Zeo-BTN2A1-CFP; not shown: CFP fused at the N-terminus (CFP(Nter)-fusion)
T3 sequence: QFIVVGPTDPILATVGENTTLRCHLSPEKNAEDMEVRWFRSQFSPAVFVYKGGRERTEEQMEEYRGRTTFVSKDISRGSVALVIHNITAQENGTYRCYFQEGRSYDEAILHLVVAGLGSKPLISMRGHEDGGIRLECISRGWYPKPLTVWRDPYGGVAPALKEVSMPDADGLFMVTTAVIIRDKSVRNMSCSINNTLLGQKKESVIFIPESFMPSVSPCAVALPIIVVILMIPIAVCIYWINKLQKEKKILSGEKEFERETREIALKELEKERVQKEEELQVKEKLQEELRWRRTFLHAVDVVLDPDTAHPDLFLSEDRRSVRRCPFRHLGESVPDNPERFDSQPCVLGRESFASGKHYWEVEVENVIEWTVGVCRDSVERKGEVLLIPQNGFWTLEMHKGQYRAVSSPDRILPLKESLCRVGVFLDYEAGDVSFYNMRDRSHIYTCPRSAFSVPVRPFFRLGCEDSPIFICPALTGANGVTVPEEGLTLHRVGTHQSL
Procedure: as §1, §2

[5] = target: T3, human BTN2A1 CFP(Nter)-fusion protein …; assay: flow cytometry (PE MFI in CFP-positive cells) on 293F BTN3/BTN2 KO cells transfected with BTN2A1-CFP
Procedure: as §1, §2

[6] = target: T2, human BTN2A2 CFP(Nter)-fusion protein …; assay: flow cytometry on BTN2A2-transfected 293F BTN3/BTN2 KO cells (summary table, repeats the 7th table)
Procedure: as §1, §2

[7] = target: T2, human BTN2A2 CFP(Nter)-fusion protein …; assay: flow cytometry on 293F BTN3/BTN2 KO cells transfected with BTN2A2-CFP
Procedure: as §1
as §2, with “Finally, cells were washed twice in staining buffer prior to fixation using BD Cytofix reagent (BD Bioscience) according to manufacturer's instructions.” left out

[8] = target: T3, human BTN2A1 CFP(Nter)-fusion protein …; assay: flow cytometry on 293F BTN3/BTN2 KO cells transfected with BTN2A1-CFP
Procedure: as §1
as §2, with “Finally, cells were washed twice in staining buffer prior to fixation using BD Cytofix reagent (BD Bioscience) according to manufacturer's instructions.” left out

[9] = target: T1, human BTN2A2 expressed on HEK293F cells …; assay: flow cytometry on HEK293F cells transfected with BTN2A2-Flag
Procedure: FIG. 1: Binding of BTN2 mAbs on HEK293F cells. HEK293F cells were transfected with BTN2A2-Flag plasmid. At day 1 after transfection, BTN2A2 transfected HEK293F cells (A) and non-transfected HEK293F cells (B) were stained with purified mouse anti-human BTN2 mAbs for 20 min at 4° C. Monoclonal Anti-Flag antibody serves as positive control for transfection. After 2 washes, cells were incubated with a secondary goat anti-mouse IgG PE for 20 min at 4° C. and a marker for cell viability. Cells were acquired on a LSRFortessa (BD) and analyzed with FlowJo (TreeStar).

Row | Binder | EC50 [1] [mg/L] | EC50 [2] [mg/L] | EC50 [3] [mg/L] | EC50 [4] [mg/L] | EC50 [5] [mg/L] | EC50 [6] [mg/L] | binding result [7] | binding result [8] | binding result [9]
1 | B1 | 31.3 | 11.8 | 31.3 | 0.02 | 0.02 | 11.8 | – | – | –
2 | B2 | – | – | – | – | – | – | no binding | no binding | no binding
3 | B3 | 0.07 | 0.01 | 0.07 | 0.04 | 0.04 | 0.01 | – | – | –
4 | B4 | 0.07 | 0.01 | 0.07 | 0.06 | 0.06 | 0.01 | – | – | –
5 | B5 | 0.08 | 0.01 | 0.08 | 0.02 | 0.02 | 0.01 | – | – | –
6 | B6 | 0.1 | 0.5 | 0.1 | 0.08 | 0.08 | 0.5 | – | – | –
7 | B7 | 0.11 | 2.4 | 0.11 | 0.08 | 0.08 | 2.4 | – | – | –
